Patent publication US6103888A, “Mammalian cationic proteins having lipopolysaccharide binding and anti-coagulant activity” (priority 1999, dated 2000)

Tested on: cysteine protease
Experiment: Cysteine protease activity of purified human CAP18
Assay type: biochemical

B1: human CAP18: human form of CAP18, amino acid sequence SEQ ID NO:2 (protein)
chain: MKTQRDGHSLGRWSLVLLLLGLVMPLAIIAQVLSYKEAVLRAIDGINQRSSDANLYRLLDLDPRPTMDGDPDTPKPVSFTVKETVCPRTTQQSPEDCDFKKDGLVKRCMGTVTLNQARGSFDISCDKDNKRFALLGDFFRKSKEKIGKEFKRIVQRIKDFLRNLVPRTES
cysteine protease activity (in words): significant cysteine protease activity
